Laboratory results reported in publication PMC4234509.

Experiments:
[1] = target: EvpP (E. tarda virulent protein P), wild type, 6x His-tagged (Edwardsiella tarda PPD130/91); test: cross-linking; glutaraldehyde, room temperature, different time periods, SDS-PAGE
[2] = target: EvpP (E. tarda virulent protein P), wild type, 6x His-tagged (Edwardsiella tarda PPD130/91); test: dynamic light scattering; 50 µM protein, 20°C, DynaPro; 11 readings
[3] = target: EvpP (E. tarda virulent protein P), wild type, 6x His-tagged (Edwardsiella tarda PPD130/91); test: SEC; Superdex 75 HiLoad 16/60; EvpP eluted at ~72 ml, standards ovalbumin (44 kDa) at 63 ml and myoglobulin (17 kDa) at 83 ml
[4] = target: trypsin-digested EvpP (associated 10-kDa and 4-kDa fragments) (Edwardsiella tarda PPD130/91); test: SEC; EvpP after limited trypsin digestion (protein:trypsin 100:1), HiLoad 16/60 Superdex 75

Substance	stoichiometry N [1]	stoichiometry N [2]	stoichiometry N [3]	stoichiometry N [4]
EvpP (E. tarda virulent protein P), wild type, 6x His-tagged (natural protein)	2	2	2	–
trypsin-digested EvpP (associated 10-kDa and 4-kDa fragments) (complex)	–	–	–	2
